Changes are numbered by the printed parent chain. Like-named read-outs stand apart in the source and are kept apart here. Each block holds one binder with its values, some of them ahead of it.
What was measured:
[1] = molecular target: T1, human FcRn (human FCGRT and B2M) on stably transfected MDCK cells (human, UniProt P55899 24-365; P61769 21-119); assay: cell-based or functional assay
[2] = molecular target: T2, human B2M (human, UniProt P61769 21-119, limits assumed); assay: ELISA: human B2M coated, antibody titrated, OD450
T2 construct: also called beta-2-microglobulin; not shown: His tag and Avi tag

[3] = molecular target: T3, Rattus norvegicus FcRn-alpha (rat, UniProt P13599 23-298); assay: ELISA: rFcRn coated, antibody titrated, goat anti-human IgG Fab-HRP, OD450
T3 construct: Alpha chain alone; also called rFcRn; rat FcRn; not shown: His tag and Avi tag
T3 sequence: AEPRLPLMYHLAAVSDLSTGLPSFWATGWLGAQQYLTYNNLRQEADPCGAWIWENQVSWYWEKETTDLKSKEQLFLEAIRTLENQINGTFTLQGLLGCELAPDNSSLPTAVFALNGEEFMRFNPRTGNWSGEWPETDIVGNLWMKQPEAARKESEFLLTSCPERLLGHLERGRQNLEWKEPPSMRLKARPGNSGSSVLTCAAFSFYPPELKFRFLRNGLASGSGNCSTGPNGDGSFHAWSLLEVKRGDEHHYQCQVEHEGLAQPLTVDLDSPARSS

[4] = molecular target: T4, Cynomolgus monkey FcRn-alpha (cynomolgus monkey, UniProt Q8SPV9 24-297, limits assumed); assay: ELISA: cynoFcRn coated, antibody titrated, goat anti-human IgG Fab-HRP, OD450
T4 construct: The printed entry looks like the full-length precursor (signal peptide, transmembrane and cytoplasmic parts); also called cynoFcRn; not shown: His tag and Avi tag
T4 sequence (Q8SPV9 24-297 limits assumed): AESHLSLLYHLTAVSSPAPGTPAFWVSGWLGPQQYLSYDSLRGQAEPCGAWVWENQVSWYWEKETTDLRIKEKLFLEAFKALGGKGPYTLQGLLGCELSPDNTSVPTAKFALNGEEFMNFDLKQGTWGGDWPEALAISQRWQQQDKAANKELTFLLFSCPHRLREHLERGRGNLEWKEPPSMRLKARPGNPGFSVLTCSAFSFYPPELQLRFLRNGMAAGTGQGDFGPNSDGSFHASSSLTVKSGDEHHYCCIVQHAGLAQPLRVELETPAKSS

[5] = molecular target: T5, human FCGRT (human, UniProt P55899 24-297, biotinylated (Avi tag) in the blocking assays); assay: ELISA: human FCGRT coated, antibody titrated, goat anti-human IgG Fab-HRP, OD450
T5 construct: Alpha chain alone, expressed in Expi293 cells with His and Avi tags; also called FCGRT of human FcRn protein; biotinylated human FCGRT; not shown: His tag and Avi tag
T5 sequence (P55899 24-297 limits assumed): as the sequence (Q8SPV9 24-297 limits assumed) above, with D39N, Q44E, S99G, G189S, N190S, M217L, T269S counted along it

[6] = molecular target: T6, Human recombinant FCGRT & B2M Heterodimer Protein (hFcRn) (human, UniProt P55899 24-297; P61769 21-119); assay: ELISA: hFcRn coated (1 ug/mL), antibody (IgG4) titrated, goat anti-human IgG Fab-HRP, OD450
T6 construct: Bought protein; also called human FcRn
Experimental: (§1) hFcRn binding of purified full-length chimeric antibodies: The hFcRn antigen binding ELISA was performed on the purified full-length chimeric antibodies (reformatted as IgG4). Briefly, plates were coated overnight at 4° C. with 1 μg/mL of hFcRn (cat #CT009-H08H) in PBS. After removing the coating solution, the wells were blocked by adding blocking buffer and incubated at room temperature for 1 hour. Plates were then washed 6 times with wash buffer. Serial dilutions of purified antibodies in PBS were added to individual wells followed by incubation at room temperature for 1 hour. Plates were washed 6 times with wash buffer. […] Plates were incubated at 37° C. for 1 hour, washed 6 times with wash buffer, and developed for 5-10 minutes with 50 L/well of TMB substrate, then quenched with 2M H₂SO₄. […] The ELISA results (OD450) were analyzed, and the binding curves were generated by Graphpad PRISM.

[7] = molecular target: T5, human FCGRT; assay: blocking ELISA: human IgG coated, biotinylated human FCGRT plus titrated antibody, SA-HRP, OD450; blocked ligand: human IgG
Experimental: (§2) After removing the coating solution, the wells were blocked with a blocking buffer containing 1% BSA at room temperature for 1 hour. Plates were then washed with wash buffer. […] After incubation, 100 μL of SA-HRP (1:20,000) was added to each well and incubated for 1 hour at 37° C. The wells were washed before adding 100 μL/well of TMB and incubated for 5-10 minutes at 37° C. 2M H₂SO₄ was used to stop the reaction. […] The ELISA results (OD450) were analyzed, and the binding curves were generated by PRISM.

[8] = molecular target: human FcRn (human FCGRT and B2M) on stably transfected MDCK cells (human) (UniProt P55899); assay: cell-based or functional assay
[9] = molecular target: human FcRn (human FCGRT and B2M) on stably transfected MDCK cells (human) (UniProt P55899); assay: cell-based or functional assay; remark: listed apart in the source
[10] = molecular target: Human recombinant FCGRT & B2M Heterodimer Protein (hFcRn) (human) (UniProt P55899); assay: ELISA, hFcRn coated at 1 ug/mL, antibody titrated, anti-human IgG Fab-HRP
[11] = molecular target: T5, human FCGRT; assay: competition ELISA: human IgG coated, biotinylated human FCGRT plus antibody, SA-HRP
[12] = molecular target: T5, human FCGRT; assay: as above; remark: listed apart in the source
[13] = molecular target: T5, human FCGRT; assay: ELISA: human FCGRT coated, antibody titrated, goat anti-human IgG Fab-HRP, OD450; remark: listed apart in the source
[14] = molecular target: T5, human FCGRT; assay: as above; remark: listed apart in the source
[15] = molecular target: T1, human FcRn (human FCGRT and B2M) on …; assay: cell-based or functional assay; remark: listed apart in the source
[16] = molecular target: T6, Human recombinant FCGRT & B2M …; assay: ELISA on coated hFcRn, IgG4 antibody titrated
Experimental: as §1

[17] = molecular target: T4, Cynomolgus monkey FcRn-alpha; assay: ELISA on coated cynoFcRn, IgG4 antibody titrated
Experimental: as §1
Analysis of cross-reactivity to FcRn from different species: To examine whether the anti-FcRn antibodies bind to FcRn from different species, antigen binding ELISA assays were performed as described above except that cynoFcRn, mFcRn, or rFcRn was used in the assay instead of hFcRn.

[18] = molecular target: T5, human FCGRT; assay: ELISA on coated human FCGRT, IgG4 antibody titrated
Experimental: (§3) Measurement of the binding specificity of anti-FcRn antibodies to FCGRT and B2M by EILSA: Briefly, human FCGRT or B2M was coated on a 96-well plate at 4° C. overnight, after removing the coating solution, a blocking buffer containing 1% BSA was added into the plates followed by incubation at room temperature for 1 hour to block unspecific binding. Plates were then washed with wash buffer, and serial dilutions of anti-FcRn antibodies were added to the wells and incubated at room temperature for 1 hour. […] The wells were washed before adding 100 μL/well of TMB and incubated for 5-10 minutes at 37° C. 2M H₂SO₄ was used to stop the reaction. […] The ELISA results (OD450) were analyzed, and the binding curves were generated by Graphpad PRISM.

[19] = molecular target: T2, human B2M; assay: ELISA: human B2M coated, antibody titrated, OD450; remark: listed apart in the source
Experimental: as §3

[20] = molecular target: T6, Human recombinant FCGRT & B2M …; assay: SPR, Biacore T200, antibody (IgG4) on CM5 chip, hFcRn in solution, pH 6.0
Experimental: The anti-FcRn antibodies were stabilized on sensor chip CM5. The affinities for hFcRn of antibodies at various concentrations were measured. […] Using the SPR technology, the association and dissociation rates were measured, and binding affinity was determined.

[21] = molecular target: T5, human FCGRT; assay: competition ELISA: human IgG coated, biotinylated human FCGRT plus antibody, SA-HRP; remark: listed apart in the source
Experimental: as §2

B2: Rozanolixizumab (antibody, part only; not given: Constant regions, V domains shown, not shown: another chain or arm of the molecule)
VH: EVPLVESGGGLVQPGGSLRLSCAVSGFTFSNYGMVWVRQAPGKGLEWVAYIDSDGDNTYYRDSVKGRFTISRDNAKSSLYLQMNSLRAEDTAVYYCTTGIVRPFLYWGQGTLVTVSS
VL: DIQMTQSPSSLSASVGDRVTITCKSSQSLVGASGKTYLYWLFQKPGKAPKRLIYLVSTLDSGIPSRFSGSGSGTEFTLTISSLQPEDFATYYCLQGTHFPHTFGQGTKLEIK
- IgG Recycle IC50 [8]: 7.8 nM
- IgG Recycle IC50 [9]: 11.8 nM
- EC50 [10]: 1.04 nM
- IC50 [11]: 10.9 nM
- IC50 [12]: 11.6 nM
- EC50 (read off the curve) [13]: 10 nM
- EC50 (read off the curve) [14]: 0.1 nM
- EC50 (read off the curve) [4]: 0.2 nM

B3: ZLP1-3-2F (antibody, V domains shown)
VH: QVQLQESGPGLVKPSETLSLTCAVSGYSFTSGYSWHWIRQPPGKGLEWIGYIHDSGGTNYNPSLKSRVTISRDTSKNQFSLKLSSVTAADTAVYYCAREENYRYFDVWGQGTLVTVSS
VL: EIVLTQSPATLSLSPGERATLSCSASSSVSYMHWFQQKPGQSPRLLIYSTSNLASGIPARFSGSGSGTDFTLTISSLEPEDFAVYYCQQRSSYPPTFGQGTKVEIK
- IgG Recycle IC50 [15]: 8.36 nM
- EC50 [16]: 6.63 nM
- EC50 [17]: 2.06 nM
- EC50 [18]: 1.02 nM
- binding result [19]: no binding (tested: about 700 nM (Log[Ab] about 2.8))
- Kd [20]: 0.609 nM
- IC50 [21]: 5.77 nM

Second part, led by results:

- IgG Recycle IC50 [1]: 3.12 nM
- EC50 (read off the curve) [4]: ~6 nM
- EC50 (read off the curve) [5]: ~20 nM
- EC50 (read off the curve) [6]: ~9 nM
- IC50 (read off the curve) [7]: ~40 nM
B1: ZLP37 (antibody, V domains shown)
VH: EVQLQQSGVELARPGASVKMSCKASGYTFSSYAMQWVKKRPGQGLEWIGYINPGTGYTNYNQKFKDKATLTADKSSSTAYMHLSSLTSEDSAVYFCARGGGLRGAMDYWGQGTSVTVSS
VL: DIVLTQSPALMSASPGEKVTMTCSANSSVNYMYWYQQKPGSSPKLWIYSTSNLASGVPARFSGSGSGTSYSLTISSMEAEDAATYYCHQRSSYPWTFGGGTKLEIK
notes: Full-length chimeric antibody with human IgG1 or IgG4 heavy constant and human kappa or lambda light constant domain
- binding result [2]: no binding (tested: about 700 nM (Log[Ab] about 2.8))
- binding result [3]: no binding (tested: about 700 nM (Log[Ab] about 2.8))

- IgG Recycle IC50 [15]: 11.9 nM
- EC50 [16]: 3.11 nM
- EC50 [17]: 2.82 nM
- EC50 [18]: 1.22 nM
- Kd [20]: 0.493 nM
- koff [20]: 0.00184 s⁻¹
- kon [20]: 3.73e+06 M⁻¹ s⁻¹
- IC50 [21]: 5.12 nM
B4: ZLP1-3-2M (antibody, V domains shown)
VH: B3 VH with A23T, S25T
VL: B3 VL
- binding result [19]: no binding (tested: about 700 nM (Log[Ab] about 2.8))
